Measured values: PMC3587310 (Biochemistry, 2013)

Target: the molecule itself
Test: crystal structure

B1: S. elongatus KaiC A422V mutant protein (natural protein, Synechococcus elongatus, UniProt Q79PF4 1-519, looked up)
chain: MTSAEMTSPNNNSEHQAIAKMRTMIEGFDDISHGGLPIGRSTLVSGTSGTGKTLFSIQFLYNGIIEFDEPGVFVTFEETPQDIIKNARSFGWDLAKLVDEGKLFILDASPDPEGQEVVGGFDLSALIERINYAIQKYRARRVSIDSVTSVFQQYDASSVVRRELFRLVARLKQIGATTVMTTERIEEYGPIARYGVEEFVSDNVVILRNVLEGERRRRTLEILKLRGTSHMKGEYPFTITDHGINIFPLGAMRLTQRSSNVRVSSGVVRLDEMCGGGFFKDSIILATGATGTGKTLLVSRFVENACANKERAILFAYEESRAQLLRNAYSWGMDFEEMERQNLLKIVCAYPESAGLEDHLQIIKSEINDFKPARIAIDSLSALARGVSNNAFRQFVIGVTGYAKQEEITGLFTNTSDQFMGVHSITDSHISTITDTIILLQYVEIRGEMSRAINVFKMRGSWHDKAIREFMISDKGPDIKDSFRNFERIISGSPTRITVDEKSELSRIVRGVQEKGPES
modifications: phosphothreonine at T432 in all six subunits; S431 not phosphorylated
- stoichiometry N: 6
